assay: soluble on expression in E. coli; label from the status in PepcDB or PDB records

Sequence | soluble on expression in E. coli
MGKHEKGSSKDLANRTKSKGLQKLKFFCQMCQKQCRDANGFKCHLTSEAHQRQLLLFAENSNSYLRQFSNDFEKNFMQLLRTSYGTKRVRANEVYNAFIKDKGHVHMNSTVWHSLTGFVQYLGSSGKCKIDEGDKGWYIAYIDQEALIRKEEDQRKQQQEKDDEERHMQIMDGMVQRGKELAGDDEHEYEATELIRDTPDQKIQLDLNLGILDRKLDVKSGVASAKISIFDMPKVKKEDPDEPGPSQPSRKSGKKRSRSRSPAAKKFSKKSALDEIKEMEERKKERKNRKDYWMREGIVVKVITKSLGSEYYKAKGVVRKVVDDYTAQVKLDDGTVVKLDQEHVETVIPSLGRQMMIVNGAYRGQEATLESIDEKRFSLRLKIASGPTRGRQIDVPYEDASKLA | not soluble
MGSHHHHHHSQDPMMSRLKTAVYDYLNDVDITECTEMDLLCQLSNCCDFINETYAKNYDTLYDIMERDILSYNIVNIKNTLTFALRDASPSVKLATLTLLASVIKKLNKIQHTDAAMFSEVIDGIVAEEQQVIGFIQKKCKYNTT | soluble
MAHHHHHHMASGGSVIGVKYNGGVLLACDTLLSYGSLAKWPNIPRMKLVGAYTVMCATGDYADFQEMTTMIENHVNRQQMYGGGALTPNEVFCYLQRHVYHKRSQFEPCLCRFVVAGCHGGEPFLGGVDDVGTRWTDDCVAAGYGAYIALPLLRQALEKPGGLTREEAIRVIKDCLRVLFYRECRAINKFQIADATSDMVSIGEPFEVETNWEYDGFCFEKTAIIR | not soluble
MAHHHHHHMRPKKSAFKLAQRGERHLLHGNSEVSNFYGISESGFSNSRPPPYLLRFDKCNDIIAYTNEVDSECLKQIKNLAMLDIIKGHVTILPDVHLGKGIIIGSVFLTKDFIIPNGVGVDIGCGVLCVKINKLKKKNLREHIINNIYKKIKRNVPLSFDSHEKEVFDAKKVLDGLVAKYASRNMAHIMTPRHLKQMGTLGGGNHFIEIAYDASDGGEEALSGNQSGETHQNDAPHSYTSEQNHSPESDIYILIHSGSRNIGKRTAEFYDELASQESKVKRNDLAYLDLKKEQGQNYLKDMQLCLEYAKCNRIYMMKIIERIIYEEVNCTLDWQSVINIHHNFCNQELVTYVHSGEVKREYMYVTRKGATSSKKNQLGVIPGNMKVGSYIVRGKGNKLSYSSCSHGCGRVLSRTHAKKIINQTDFVNIMRGVRCDTNARIRDEAPQAYKNLGQVLRNQDSLVHVVRRLLPLINVKGE | not soluble
MGSDKIHHHHHHMFVNRKEELEFLERKWREEGAQLIIIYGRRRIGKTMLLKEFLKGKRGIYFLATADSMAENIRGLAEKFTKLTRREYFMEVRDFRRLFRYLAEEMGKERVAVVLDEFQYLISLDPGILSVLQKIWDEYLKDTGIFLILCGSSIGMMERTLEYKSPLYGRRTGAWKVKPFDIRGIAEMFPERSMEELVKIYAVFGGVPFYLDLIRNLSVENAIKERILKKGEILYEEPEFLLREELREPRVYKLILKGLALGYESLGELINFTGLDRGNLSKYLDTLERLELVGYELPYGKRKRGQYYIRDNFFNFWFRFVYPNLADLELGLVNEVWERISGEINAYYGKMFERLVREMLRLRILDFGQKGVSRWWHRGEEIDAIAELKDKLLFVEVKWKDLNRREARKILKDLKRKSERFEGEKEFLLIAKRIEDKEEGMLDLEDLEKVIRNL | not soluble
MAMSTKLSVAIHILSLIETGPQEQVTSEYIASSVNTNPVVVRRLMSQLKKAGLIHSMRGANKNTLLKKPEEISLYEIYTAVELEREIFNIHQNPNPNCSVGANIQSVLETEFTKVQQKMEEELKSITLADVIHEIEVKRDK | not soluble
MGSDKIHHHHHHMKVYLSFDYELYFGAKSGSADACIIEPAKLLLEIAARHAVHLNFFIDSGYLLALEKYSKRYPSVAYEKQQVFKQIRELAAAGHDCQLHIHPHWEDSYYDGNGWKMNTNRYRLDHFPDAQIEQIVQSYYDITKDIAGKAPIAYRAGGWCMPPWNKVSAVFKKLGIWIDSTVYEKGYLQEGQIAFDFRKAPASDQWMFETDPVTEAPFGYFLELPISSISCSPLFFWNLYVRGRLNRSLHAGMGDGLPMAQPGTKKKLLTRYTQQALSCDGYYASLLTEEFYKRKAKGEDTMVVIGHPKAQSKFSVQALDTFISTVKDSAAFARYSDLQKD | not soluble
MMATQTLSIDSYQDGQQMQVVTELKTEQDPNCSDPDAEGVSPPPIESQTPMDADKQAIYRHPLFPLLALLFEKCEQSTQGSEGTTSASFDVDIENFVRKQEKDGKPFFCEDPETDNLMVKAIQVLRIHLLELEKVNELCKDFCSRYIACLKTKMNSETLLSGEPGSPYSPVQSQQIQSAITGTLSPQGIVVPASALQQGNVTMATVAGGTVYQPVTVVTPQGQVVTQALSPGTIRIQNSQLQLQLNQDLSILHQEDGSSKNKRGVLPKHATNVMRSWLFQHIGHPYPTEDEKKQIAAQTNLTLLQVNNWFINARRRILQPMLDSSCSETPKTKKKPAQNRPVQRFWPDSLASGVAQATPSELAMSEGAVVTITTPVNMNVDSLQSLSSDGATLAVQQVMMAGQSEDESVDSTEDEGGALAPTHISGLVLENSDSLQ | not soluble
MLYINSFLDRMGEIIRGEKSVEEADKLLDQKNIFEMFRSDCEEILNLYKSGKAEKEEVQRNFYLLKTYVVSQLSIHFERLKEFAESKGFKIEKKLDPEVINEIALYIDRVEKEV | soluble
MGSDKIHHHHHHMVDVEEKSQEVEYVDPTVNRVPNYEVSEKAFLLTQSKVSIEQRKEAAEFVLAKIKEEEMAPYYKYLCEEYLVNNGQSDLEHDEKSDSLNEWIKFDQELYNELCKKNESKIKELNEKIQKLEEDDEGELEQAQAWINLGEYYAQIGDKDNAEKTLGKSLSKAISTGAKIDVMLTIARLGFFYNDQLYVKEKLEAVNSMIEKGGDWERRNRYKTYYGIHCLAVRNFKEAAKLLVDSLATFTSIELTSYESIATYASVTGLFTLERTDLKSKVIDSPELLSLISTTAALQSISSLTISLYASDYASYFPYLLETYANVLIPCKYLNRHADFFVREMRRKVYAQLLESYKTLSLKSMASAFGVSVAFLDNDLGKFIPNKQLNCVIDRVNGIVETNRPDNKNAQYHLLVKQGDGLLTKLQKYGAAVRLTGSDRV | not soluble
MAHHHHHHMSTMDVPGTAIEQYFNQLIQMRLLTQVIVSDTRGDTTVACLMGLEHGGDAVVSSSEDTYGVAESIMESNVALSGARCFQNLDQLNLGVPLYVSFQYHDDVVVQTLDGCCMLTLIGSRSQGHFVGGLLTLLDQIRSCEAYQELLTQTQLCFR | not soluble
MGSDKIHHHHHHMTIQDYMLETPVRMREIISNADSLFNEVKRTNLKKIIITGSGTSYHSGVQVQPYLQNLLDIDVVKMYPFMITEDTFKFDNENTLVVGVSQGGSSYSTYNAMKLAEDKGCKIASMAGCKNALIDEISDYILTVNCGEEKSGAKTKGYYCTKLNLMLLGLQIAREKGIISSEKYNEEINKILDAINRFEAVYKLSKQWIERNKEKLVNSKEIRIIGHSDIYGDTLEAALKLLETMRIPVTGYEFEEFIHGIYNAINSDSTIFILDTGKEPRVTKMIDVLSGWTENVFAIGRDVTENDKNLKIDITDNPYYQTFNFIVPIQLICGEIPTLRGVDPSVPKDTRFHMKLGSKKLNK | not soluble
MGSDKIHHHHHHMLYQLHEFQRSMLHPLTAWAQATAKTFTNPLSPLSLVPGAPRLAAGYELLYRLGKEYEKPAFDIKSVRSNGREIPIVEQTIMEKPFCRLVRFKRYADDPDTIKLLKDEPVVLVAAPLSGHHATLLRDTVRTLLQDHKVYVTDWVDARMVPAEHGPFHLSDYIYYIQEFIRHIGADKLHVISVCQPTVPVLAAISLMASAGEKTPLTMTMMGGPIDARKSPTAVNSLATNKSFEWFENNVIYTVPANYPGHGRRVYPGFLQHAGFVAMNPDRHLSSHYDYYLSLIQGDADDAEAHVRFYDEYNAVLDMAAEYYLDTIREVFQEFRLANGTWTIDGNPVRPQDIKGTALLTVEGELDDISGAGQTSAAHDLCAGIPQTHKHHLSAAKCGHYGIFSGRRWRDEIYPQLRDFIRKYR | not soluble
MGSDKIHHHHHHMSMDIVERINKLKEEKNAVILAHNYQPKEIQKIADFLGDSLELCIKAKETDADIIVFCGVDFMGESAKILNPEKKVLMPEIEGTQCPMAHQLPPEIIKKYRELYPEAPLVVYVNTTAETKALADITCTSANADRVVNSLDADTVLFGPDNNLAYYVQKRTDKKVIAIPEGGGCYVHKKFTIDDLKRVKSKYPNAKVLIHPECSPELQDNADYIASTSGILRIVLESDDEEFIIGTEVGMINRLEIELEKLGKKKTLIPLRKDAICHEMKRITLEKIEKCLLEERYEIKLEKEIIEKAQKAIERMLRI | not soluble
MCIVALAWQVFDQIPLCLLSNRDEFYARPTTQLHLWENTPIIAGRDLQSGGTWMGITASGRWAVVTNFRDGHDKKIYDTSRGTLVEDFLLSDLAPIRFAKQLEQRQQHYAGFNLFMGDQSQAVYMSNRGEAPQVLAKGVYVVSNGLMSEHWEKTAHLRKRFTQEFVPMLQAEIAEHDLEYTAWDILEDERKVIPELLPSTGIHPDMEELLSSTFIQSPVYGTRCSNFLRLMKRRWIWAEKTQWGDHAGEMMRMDIQIQLEHHHHHH | not soluble
PLSEAELALFDPYSKEESTGPSPTHTGELAAIEVESKRLDQEPWEPGGQEEEEAEDGEPAPAYLGQATELITQALRNEKAGAYAAALQGYQDGVHILLQGVSGDPSPARREGVKKKAAEYLKRAEMLHTHLP | soluble
SLRRWDQGLEKPRLDYSEFFTEDVGQLPGLTIWQIENFVPVLVEEAFHGKFYEADCYIVLKTFLDDSGSLNWEIYYWIGGEATLDKKACSAIHAVNLRNYLGAECRTVREEMGDESEEFLQVFDNDISYIEGGTASGFYTVEDTHYVTRMYRVYGKKNIKLEPVPLKGSSLDPRFVFLLDQGLDIYVWRGAQATLSNTTKARLFAEKINKNERKGKAEITLLVQGQEPPGFWDVLGGEPSEIKNHVPDDFWPPQPKLYKVGLGLGYLELPQINYKLSVEHKKRPKVELMPGMRLLQSLLDTRCVYILDCWSDVFIWLGRKSPRLVRAAALKLGQELCGMLHRPRHTVVSRSLEGTEAQVFKAKFKNWDDVLTVDYTRNAEAVLQGQGLSGKVKRDTEKTDQMKADLTALFLPRQPPMPLAEAEQLMEEWNEDLDGMEGFVLEGRKFTRLPEEEFGHFYTQDCYVFLCRYWVPVEYEEEEKTEDKEGKASAEAREGEEAAAEAEEKQPEEDFQCIVYFWQGREASNMGWLTFTFSLQKKFESLFPGKLEVVRMTQQQENPKFLSHFKRKFIIHRGKRKVTQGTLQPTLYQIRTNGSALCTRCIQINTDSSLLNSEFCFILKVPFESEDNQGIVYAWVGRASDPDEAKLAEDILNTMFDASYSKQVINEGEEPENFFWVGIGAQKPYDDDAEYMKHTRLFRCSNEKGYFAVTEKCSDFCQDDLADDDIMLLDNGQEVYMWVGTQTSQVEIKLSLKACQVYIQHTRSKEHERPRRLRLVRKGNEQRAFTRCFHAWSTFRQAPA | not soluble
MPNLPALPDMGLPVVTSDLTATLLPGVASPIVPGQPIEQAFSSILISMMKSDQAIEDDTENPAPVSIDALIAGMIAAPANPPQLVPSQPAPDALDTPNAPDAPAEELLSMLATSMMPNTGQPVTDEPVTFPAGGLASATPPNLPSDSGRHAADPLQTTSQAHAAPLPAELPAGNISTSTPFPAPVNSFNQAIDAANFADSGKSLPPSMTSVPVTPVAAHTSSTPLTDIAADTTANDAPAIAAEFGQPDWPEEFGRKITWLATQRMQAAELKLHPAHLGPIEISLQLSDDQRLTAQFISHHPAVREAIEANLPRLREIMAENGITLADTSVSADTPGQQAENRQGSPFRRPAAGDHSTYDSTSPQTPALQATRRSSLIDTFA | not soluble

Source: the DeepSol protein solubility set
